From a protein production outcome set (Wang et al. 2014)

Assay: label from the status in PepcDB records

Row | Sequence | protein production
1 | LAPTAQKMSKNYGVLASILLSQAAYESNYGSSLLSVKYHNIYSLPARPGQEHIYLKDNVYSKGKWQYQKVDFAVFRDWSSSMSSYLEELRQGRWGESTYKEVAGTTSYKVAAEKLQAAGFNSDPDYTKHLISIIETYNLVKYDR | failed
2 | MSSPKISIIIPVYMAESYLHRCVDSIITQTFTDWELLLVDDGSPDHSGELCEKYASAYKSRIKAFHKPNGGVASAREFGMQQARGEYSIHVDPDDWIDSNTLEELYQQAVKEQADMVICDFMMEYPNRQIHNCQKPQLLDSSSFMHQLLQQERHGSLCNKLIRTELYHKYQLHFPEKMICWEDLYICCSILLHGCKLAYVPHALYHYDFYTNDNSMVRHTDMRGLQAQIDFCRLMQAKISPEYLPELNELKGITLITAFRNQLLNEQAIRSLFPEINDWYVTRYGHDYEKSNYYGLTLVLRGYNFKTARRRMFVAKFLVQIKNKITRMLLEHHHHHH | not failed
3 | KVKWTHEEDEQLRALVRQFGQQDWKFLASHFPNRTDQQCQYRWLRVL | not failed
4 | MTKNTRFSPEVRQRAVRMVLESQGEYDSQWATICSIAPKIGCTPETLRVWVRQHERDTGGGDGGLTTAERQRLKEPERENRELRRSNDILRQASAYFAKAEFDRLWKK | failed
5 | TVACPGRGRARPVCWKRSEMATCAVEVFGLLEDEENSRIVRVRVIAGIGLAKKDILGASDPYVRVTLYDPMNGVLTSVQTKTIKKSLNPKWNEEILFRVHPQQHRLLFEVFDENRLTRDDFLGQVDVPLYPLPTENPRLERPYTFKDFVLHPRSHKSRVKGYLRLKMTYLPKTSGSEDDNAEQAEELEPGWVVLDQPDAACH | failed
6 | IPGSPFTAKITDDSRRCSQVKLGSAADFLLDISETDLSSLTASIKAPSGRDEPCLLKRLPNNHIGISFIPREVGEHLVSIKKNGNHVANSPVSIMVVQSEIGD | not failed
7 | MSSPSRTVTLPDIMCPKCIKCGSERTHHSRVRPSERTLSMLFLRPIRCRQCKERFWVKNSNAFLALGGVLFIGALLITTVWLIIEHNMADPYAGSAPEIGTEDPADSVARGTSKSQNGQEALSAPAPGTRGTHDVTQSPGSIPSSAPARNPLEDHRFTVRLYQEAANNGDADSQYKLGLLYLTGNGALQDFAEAAKWLQLAAEQGYGPAQYELGLIYRNGYGLPTDHVQSYVWLNLAAAAGVQQAMGARDEVMRALSSKQLAQAQKISREWLAARTGPESGKEADRVESAHPRRK | failed
8 | MKIRPFLVALGLTTFAGAAHGANFEDLTQLLSTKKCPLCDLRGAGLVMVNLTRADLTGADLSGANLSGADLTGANLSGANLTSASLNGANLSGANLNGAITDGTDFREAYFDRATFINTNLETAYMQGAKAVPNTAGTPQLFYGWGLLETSKGNYQSALNHYDQALALDPEFAPGYLGRGLTLLKIGNEASAKQNVEYAQLLFEENQDEVGVKTSEQFLEDLANMQEARRQGAGNPQLDAIVRGVASMAFKYLLPLVGL | failed
9 | MAKKQLSLTRLSFPIFWDLLSKYLTVIINTAMVSHYSNFLVGAMGAGNQILDLFITIFSFLSVGCSVLIAQAIGAKDHVLARKVIHQSLFLNALLGFVCGVLILWHGEYLLYLLKIPQELLKDSEIYLHMLAICLFFDAIGIVLAAIVRVYNMAYWVMFIGFLMDIVVICGNYYVLHYTKSELFGIGLSNIFARIVAIVALFAILFYKLKIHLKIKEMIKLEKEVLKKVLNIGGFSAGENLLWIVQYTIAFAFVASLGEASLSVQTIYFQISMLIMLIGQATSIANEIIVGKLIGARYENIAYKHAWRALYFSVIASALVALLNYLCQDFTMQILGLKEELKNLMIPLFALSIFLEISRTFNIVMVNSLRASGDAKFPFFSGLVFMMGVSLPVGYVLCFHFNLGILGVWIGFCADEFLRGMVNSYRWKSKKWQGKALV | failed
10 | GQSEDGLSVPKPLGIVEPWQMWLQRWVPGQPATELLITRPDLPEKIAALAHKIHSHSVPTTKTHTIATELQILGDRLREFSHQQPQWQTQIQHFIAQSEQLGEVLNKYPRPTTTIHRDFYPDQILVDGNHLWLVDLDLYCKGDPAVDLGNFIAHMTEYSLRTWG | failed
11 | MSPPPAPNPIRDSLIARADALREGGAPAEARDLYRLVLDRHPGHGPALAGLGRILLGLGQPTAALESLGAAVAADPTRLDWLADLAVALAGARRPAEALSAAEGLPATAGALGFRADRLEELGRRDQAIALLDDALRRHPDEAELHRRQGVLLRRAGRAAQAIAPWRALVALRPGDAAAWSSLGAGLGESGLDEEAEKALRRAVALAADEPDWTYNLAHFLIERDRLEDALPLLDAAVARAPERAHYHTNLGVCRLGLGDIKGAIAAHRQALALDPDEPEARYDLAWALLLAGAWEEGWAAHEARWRMGRFTGRRAAGPAPTDWPMPLWDGQPLGPGRTLLLHAEQGFGDSLMMSRLIIPALARAGDAQGIIECPPSLVGLLAQSLGPALGPAVRVVAQAESPPAADAHLPLMSLPHRLGVDSETIPGPDRWLRAEPAPRPPSSPPRVGLVWAGDPGNRMDRLRSCPATALRPLFDRVKDAGLDIAWTGLQLGPPAADLPDLPAALAPGGDFAATARVVAALDLVIGVDTAVIHLAGGLGVETWVMLAYVPDYRWMMDRDDSPWYPSARLFRQSRRGDWRGVIAQVAAALTKRFG | failed
12 | MTSLRRRCIRQVPNTLTVGRFALVPVAAGFIWTGDLRAAFWVFVAAGITDALDGWLARVLDARTALGATLDPLADKALLVATFFTLALTGAIPLWLLGLVALRDALILAGFAWLRLRAGRPIRVTPNILGKANTLAQILLCAAVIGASAFTLDLSAVIAVLTPVVAATTIISGIAYLRMWLRRGWDGQQAHDRIERTRRNNQQRDDR | failed
13 | MIMSKESIIFVGLFTVILSAVILMLSYTSSGQELNQYVKIEVQQGDTLWSIADQVADTKKINKNDFIEWVADKNQLQTSDIQPGDELVIPLKKKHQDAYELATVR | failed
14 | MHPLLRRLDLNLLLVFDALYRHRNVGTAASELAISASAFSHALGRLRQGLDDELFLRQGNRMQPTQRAEHLAAAVAAALRALGEGLEEWRPFVPGQSQRTFVFAATDYTAFALLPPLMNRLQHSAPGVRLRLVNAERKLSVEALASGRIDFALGYDEEHERLPEGIQAHDWFADRYVVVARRDHPRLAGAPTLEGYLAERHAVVTPWNEDSGVIDRLLARSGLRREVAVQLPTVLAALFLAGSTDFLLTAPRHAARALAEAAGLALYPAPFDIPPYVLRLYSHVQHVGRDAHAWMIGQLKGLDISRTG | not failed
15 | MELKILVTGGNVFVPGRLNAHFSTVVYLEHKDRRIIIDPGNLSSMDELEEKFSELGISPDDITDVLFTHVHLDHIFNSVLFENATFYVHEVYKTKNYLSFGTIVGRIYSKVISSWKNVVLLKGEESLFDEKVKVFHTPWHAREHLSFLLDTENAGRVLITGDITPNRLSYYDIIKGYGSVQVKNFLDRVGRIDLLVFPHDAPLKPEVKK | not failed
16 | MRAGSGQCTGAAMDRLTEMEAFAMVVDQGGFTDAARKMGISKSAVSKHVSALEARLGARLLNRTTRRVSPTEIGLAYYDRARRVLTDAGEADALVTSMQTAPSGHLRLSVATDFGVALLAPILAEFLLDYPDITVTMVLNNRSVELISEGFDMAIRVGDLEDSSLRARKLTETTRRMIASPGYLQRHGRPMKIDDLTDHRLLYHSTQAHGNVWRLLSPSGEPRQVRAPGFLTVNDGHSLLKAAVSGLGIAHLPEFLFAEAMRAGLVEEVLPDLPVETLGIHAIYPAGRFTQPKVRAFIDFLVRRFLEKGPIGN | failed
17 | MEQHQVWAYQTKTHSVTLNSVDIPALAADDILVQNQAIGINPVDWKFIKANPINWSNGHVPGVDGAGVIVKVGAKVDSKMLGRRVAYHTSLKRHGSFAEFTVLNTDRVMTLPDNLSFERAAALPCPLLTAWQAFEKIPLTKQREVLIVGFGAVNNLLTQMLNNAGYVVDLVSASLSQALAAKRGVRHLYREPSQVTQKYFAIFDAVNSQNAAALVPSLKANGHIICIQDRIPAPIDPAFTRTISYHEIALGALHDFGDRQDWQILMQQGEALLTLIAQGKMEIAAPDIFRFEQMIEALDHSEQTKLKTVLTLNE | not failed
18 | MSTIIETGKSDFIKVNVSNSHNDAVAFEVKLAKDLTVAQLKTKLEILTGGCAGTMKVQVFKGDTCVSTMDNNDAQLGYYANSDGLRLHVVDSFATFSFDSAPVEKFELSKDQYEQRTDSVRNYLKINRMGKYNDEEMQQAEEKKRLQAEEIQKRAELCVLGGRCEVTVPGNPTRRGTIRYNGPLEGKSGHFIGVEYDEPLGKNNGSFGGKAYFTCAPNYGGFVSPLSVTVGDFPPEDFNMDDEL | failed
19 | MSRKVILTCAVTGNAPFNPKHPSMPITPAQIADACVEAAKAGASVAHIHVRDPKTGGGSRDPVLFKEVVDRVRSSGTDIVLNLTCGLGAFLLPDPEDESKALPESDVVPVAERVKHLEDCLPEIASLDITTGNQVEGKLEFVYLNTTRTLRAMARRFQELGIKPELEVFSPGDILFGKQLIEEGLIDGVPLFQMVLGVLWGAPASTETMIYQRNLIPANAQWAAFGIGRDQMPMMAQAALLGGNVRVGLEDNLYLSRGVFATNGQLVERARTVIEHLGMSVATPDEARDIMGLSRPA | not failed
20 | PFYTQGDSLTSEDHLDDTWVTVFGFPQASASYILLQFAQYGNILKHVMSNTGNWMHIRYQSKLQARKALSKDGRIFGESIMIGVKPCIDKNVMENSDRGVLSSPSL | not failed
21 | MVSNIDHKAMEALLRGQGCANNLKILLENGEISSVSTEPLIHTILDSFSLALSFMDSPNHPPYHESSSHNMASHMSRRSSKQKLCVAEGLVNYNHDSRTMCPNDGFTWRKYGQKTIKASAHKRCYYRCTYAKDQNCNATKRVQKIKDNPPVYRTTYLGKHVCKAFAVHDDTYSSTMIRFDQVVPEPIMPQLTTIDHQVITVEENSAEHIMNQECDINDYLVDDDPFWASQFPPFPSSDTMFLENISAFD | failed
22 | MGHKQSVDSRGKGRKVPGSSSMVQKHRVESSGGAIISGPSLFDNLPEDCISNIISFTSPRDACVAASVSKTFESAVNSDSVWDKFLPSDYSSLVPPSRVFSSKKELYFAICDNPVLVEDGGKSFWLEKENGKKCFMLSPKKSMWITWVSTPQYWRWISIPEARFEEVPELLNVCWFEVRGGMNTKELSPGTRYSAYIVFKTKNGCPNLGDVPVEATVGLVGQESSQRHIYFVGPSDQRRDRETRDVTRPTKRKDGWMEAELGQFFNESGCDVVDTSILEIKTPYWKRGLIIQGIEFRPTKSLFYI | not failed
23 | MDIVISGGTGLIGRAITEIQGNTYNVITRGPSRTDGNINLVNWNDLRKIRHCDVVINLAGYNIGSKRWNPKIKEEIIRSRIESTRRMVEFISSLDSKPEAFLSGSAIGYYGYGENTVFDENSPPGTGFLAELANAWEDEALKASRYTRTVILRTSNVLSSSGGFLARIMNSRSRRVYYFGDGDQPVSWIHIKDYVNAVKFLMENKDISGPVNMAAPSPVSFADLAHAIAREKGYKEMKIPEFIGKLILGSEMYRELMSGQRVAPKKLTGSGFSFQYPDLESAIKNLLEHHHHHH | failed
24 | MIEIKTLTNNDFNEYKRLVSTVNEEFTQDSHYSQTMTDTLIHDILNQGSPKCIVFGCYENETLIATAALEQIRYVGKEHKSLIKYNFVTNNDKSINSELINFIINYARQNNYESLLTSIVSNNIGAKVFYSALGFDILGFEKNAIKIGNTYFDEHWLFYDLINK | failed
25 | SLSRTVHHQQTAEITQQAADFIRYMNAINDYLYQHPERRAAGGQLTSAQLGLPATKNVSHLISQQRVFVWAKEKPGLMGALLEQSGDSALLARVENGRLLDTHGRRISITLPAVIPDQVIIWMN | not failed
